Measured values taken from publication PMC2120604.

B1: GST-lamin B1 tail (residues 391-588) (domain or fragment)
chain: LSPSPSSRVTVSRASSSRSVRTTRGKRKRVDVEESEASSSVSISHSASATGNVCIEEIDVDGKFIRLKNTSEQDQPMGGWEMIRKIGDTSVSYKYTSRYVLKAGQTVTVWAANAGVTASPPTDLIWKNQNSWGTGEDVKVILKNSQGEEVAQRSTVFKTTIPEEEEEEEEEPIGVAVEEERFHQQGAPRASNKSCAIM
modifications: 125I-labelled (Iodogen) where used as the radiolabelled ligand
B2: GST-lamin B2 tail (residues 382-596) (domain or fragment)
chain: LSPSPSSRITISRATSSSSSSSGVGMSVGQGRGKRRRLETEDTSGSPSRASRVSSGSRLAQQTVATGVVNIDEVDPEGRFVRLKNSSDKDQSLGNWRIKRQVLEGEDIAYKFTPKYVLRAGQTVTVWAAGAGATHSPPSTLVWKSQTNWGPGESFRTALVSADGEEVAVKAAKHSSVQGRENGEEEEEEEAEFGEEDLFHQQGDPRTTSRGCRLM
modifications: 125I-labelled (Iodogen) where used as the radiolabelled ligand

Molecular target: rat liver chromatin fragments (rat (endogenous in liver))
Assay: radioligand binding

Molecule	Kd [nM]
GST-lamin C tail (residues 389-572) (from UniProt P02545-2 389-572) (domain or fragment)	300
B1	120
B2	230
